In article PMC10876215, “Nucleosome conformation dictates the histone code” (eLife, 2024) one finds fold weaker than for the H3K4me3 peptide and EC50 data, which are given here for two substances.

As a reminder, the EC50 is the concentration at which the effect is half-maximal. A higher EC50 goes with a less potent agent.

Assay [1] deals with H3K4me3K9acK14acK18ac histone peptide (dCypher, biotinylated). The assay can be described thus: AlphaScreen or HTRF; dCypher on the Alpha platform; biotinylated histone peptide (100 nM final) on streptavidin donor beads, 6His-tagged Query titrated and held on Ni-NTA acceptor beads; 50 mM Tris pH 7.5, 50 mM NaCl, 0.01% Tween-20, 0.01% BSA, 0.0004% Poly-L Lysine, 1 mM TCEP; room temperature; relative EC50 (EC50^rel). (Bead proximity is the source of the signal in Alpha formats.)

Assay [2] addresses H4K5acK8acK12acK16ac histone peptide (dCypher, biotinylated). The assay can be described thus: AlphaScreen or HTRF; dCypher on the Alpha platform; biotinylated histone peptide (100 nM final) on streptavidin donor beads, GST-tagged Query titrated and held on glutathione acceptor beads; 50 mM Tris pH 7.5, 50 mM NaCl, 0.01% Tween-20, 0.01% BSA, 0.0004% Poly-L Lysine, 1 mM TCEP; room temperature; relative EC50 (EC50^rel), not an equilibrium Kd.

BPTF 6His-PHD (domain or fragment) registered a fold weaker than for the H3K4me3 peptide in assay [1] of 2 fold.

In the case of GST-BRD4-BD1 (domain or fragment), the EC50 in assay [2] was found to be 0.7 nM.
